Results on 8 sequences are retold here after a protein production outcome set (Wang et al. 2014).

The series is described as follows: label from the status in PepcDB records.
For the sequence “MQTTAAAQERYTRTAIFLHWCMTAMIVGLIGLGFYMGQQPPSPEKYALYELHKSLGVVTVLLLFARFIWRAANPPPELPTAYSQLLRTASHLGHFALYVLMFAVPVSGWVMSAAYGRPASLFGVPIPPPVTKSEDLAELWGTIHFALGSALALVIAGHTLFALKHHFIDKDGLLWRMWVRCP”, the protein production result was “failed”.

Regarding “MEQKQQSERLGTEAIPKLLRSLSIPAMIGMFVMALYNVVDTIFISYAVGIEGVAGVTIAFPIMMIMMSMAGALGIGGASVISRRLGERRGEEANQVFGNILTVILVLSVIGFISAFTLLGPALQLFGATSVTQGYATDYLFPILLGSIFFFFAFAANNIIRSEGNATFAMVTMIVPAVLNILLDVLFIFGLNMGVLGASIATVIAQASVTGLVLRYFLTGKSTLSLHWSDLRMKGSVIKEVCLVGLPAFVQQSSASLMMIAINSMLLRFGSDFYVGVFGLVQRIMMFVMMPMMGIMQAMQPIVGYNYGAKQYSRLRETVMLGFKVATIFSIGIFALLMLFPEALLRVFTADREVIQAGVSAMHILFCVTFLIGAQIVAGGLYQSLGKPKQALILSLSRQIIFLIPLVLILPHIFGLSGVWWAFPIADVLSFILTVVLLYRDRNVFFLKTKEERELDLVKTASST”, the protein production entry is recorded as “failed”.

As for “MPKGLMLTDLAIAGLLLIVAKVIRVHTPLLQRMYIPSAVLAGLFGLVFGPAMLDLLPWTDTFTANASLLTAALFSALGLATDVPSPKVVAQRAGSLWAFNQIASVSQWLFAAMFGLLLTTFFWPEINPGFGVTMSAGFMGGHGSASVVGDIFTGLGWEDGFTLGLTFATVGIFISISIGMLMLQFALKMGWIRSFTTFDSMDEHERKGLVKPTEQEPVMKDTMSSLSVDSFAIHAALVVVVTAFSYVAANYLSSFHDKVQIPTFVTGFLGGMLVRIVAKQTKASRYLCDGAFKHAAGISTDYLIIFGISAIKITVLAQYLAPMIVLAIGGIAFTLWLIFWVAPRIMGDDWFEKGIFSWGWLTGTVAMGIALLRIVDPKMRSKVLDDYAIAYVPGSITDIFIISLMPIAMYNGMEWQALGVGLAYIAVVLFIWRFVFKRSGQTVTDAS”, the protein production result is “failed”.

In the case of “ELQVIQPEKSVSVAAGESATLRCAMTSLIPVGPIMWFRGAGAGRELIYNQKEGHFPRVTTVSELTKRNNLDFSISISNITPADAGTYYCVKFRKGSPDDVEFKSGAGTELSVRAKPSAPVVSG”, the protein production entry is “not failed”.

Turning to “MFNKKPLADTTARRPSTGAQAKIYSRDNVARYSERARQRRRSHTIRHVALIVVLGVLLSATTAAGLWFATIMGKLGDSNVITDNLRRVLVDTDEAKDPFYVLLLGTDGRPGEDTYRADSIILARIDPTQKQATLISVPRDTKVEYKGETMKINACHTVGGAEAMVEAVNELCGVQISHYAEVSFDGMQALIDSVGGIDINATDDVDDPEHLDIKITAGQQHMDGATALTYARCRYTYADGDYTRMRHQRQVLGALANQILNNFDATKIFGLVNSLSDMLVTDMSVQDIVATVNAMRGMDVDGIYSANLPSYADDSTMIDGVSYVFVYEDELKEMMERVDAGKDPKGPNTMGLSDGSSSTIGDLNNNTSDDYANGTATSSVSSDDSDDSSDSSDSDYYEEPTGDGNGYEANY”, the protein production entry was “failed”.

In the case of “MAKETVCVTGANGFIGSWIIRTLIEKGYTKIHASIYPGSDPTHLLQLPGSDSKIKIFEADLLDSDAISRAIDGCAGVFHVASPCTLDPPVDPEKELVEPAVKGTINVLEAAKRFNVRRVVITSSISALVPNPNWPEKVPVDESSWSDLDFCKSRQKWYPISKTLAEKAAWEFSEKHGTNIVTIHPSTCLGPLLQPNLNASCAVLLQLLQGSTETQEHHWLGVVHVKDVAKGHVMLFETPDASGRFLCTNGIYQFSEFAALVSKLFPEFAVHKFDKETQPGLTSCNDAAKRLIELGLVFTAVEDAVKETVQSLRDKGFL”, the protein production result is recorded as “failed”.

Take “MDKRLQQDRIVDKMERFLSTANEEEKDVLSSIVDGLLAKQERRYATYLASLTQIESQEREDGRFEVRLPIGPLVNNPLNMVHGGITATLLDTAMGQMVNRQLPDGQSAVTSELNIHYVKPGMGTYLRAVASIVHQGKQRIVVEGKVYTDQGETVAMGTGSFFVLRSRGLEHHHHHH”: the protein production result is given as “not failed”.

For “MNNTQKKLKVLFIGESWHIHMIHSKGYDSFTSSKYEEGATWLLECLRKGGVDIDYMPAHTVQIAFPESIDELNRYDVIVISDIGSNTFLLQNETFYQLKIKPNALESIKEYVKNGGGLLMIGGYLSFMGIEAKANYKNTVLAEVLPVIMLDGDDRVEKPEGICAEAVSPEHPVVNGFSDYPVFLGYNQAVARDDADVVLTINNDPLLVFGEYQQGKTACFMSDCSPHWGTQQFMSWPFYTDLWVNTLQFIARK”, the protein production result is given as “not failed”.
